Consider 2 substances from patent publication US20140179612A1.

For the test, the target named is αVβ3 integrin receptor on choroid endothelial cells (RF/6A). As to the kind of experiment: cell-based or functional assay.

In turn, “transferrin-tumstatin protein (recombinant fusion, secreted from ARPE cells, histidine tagged) (from UniProt P02787 20-698; Q01955 1426-1670)” had an IC50, MTT assay of RF/6A choroid endothelial cell proliferation induced by VEGF 165 (50 ng/ml) of 5.97 nM and an inhibition of RF/6A cell proliferation at 15.6 nM (MTT assay) of 84%.

“tumstatin protein (recombinant, secreted from ARPE cells, histidine tagged) (from UniProt Q01955 1426-1670) (ligand)”: the IC50, MTT assay of RF/6A choroid endothelial cell proliferation induced by VEGF 165 (50 ng/ml) is 186 nM.
